Measurements published in article PMC7591920 (2020).
Bridge positions count the residues as written; N and C are the ends. Ends that are not written are not given here.

B1: macrocyclic two-helix motif peptide 4A (lactam 235–250, 5 crosslinking atoms) (peptide)
chain: SVDDHFAKALGDTWLQIKAA
modifications: lactam (positions not given here); not fully specified (bridges); also: lactam crosslink of 5 atoms, residue identities at the bridge ends not given here
B2: macrocyclic two-helix motif peptide 4B (lactam 235–250, 6 crosslinking atoms) (peptide)
chain: SVDDHFAKALGDTWLQIKAA
modifications: lactam (positions not given here); not fully specified (bridges); also: lactam crosslink of 6 atoms, residue identities at the bridge ends not given here

Target: T1, mouse TEAD4(210–427), as purified (SPR) (mouse, UniProt Q62296 210-427)
T1 chain: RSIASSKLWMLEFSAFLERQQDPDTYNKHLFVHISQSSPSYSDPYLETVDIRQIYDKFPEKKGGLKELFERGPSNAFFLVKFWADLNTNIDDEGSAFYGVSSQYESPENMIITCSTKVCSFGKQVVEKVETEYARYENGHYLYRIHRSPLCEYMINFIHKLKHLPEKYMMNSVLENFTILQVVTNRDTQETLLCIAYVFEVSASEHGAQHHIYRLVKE
Assay: SPR

Binder | Kd [µM]
SVEDHFAKALGDTWLQIKAA (lactam (positions not given here); not fully specified (bridges)) [macrocyclic two-helix motif peptide 4D (lactam 235–250, seven-atom crosslink)] | 1
B1 | 11
B2 | 11
SVDDHFAKALGDTWLQIKAA (lactam 3-18) [macrocyclic two-helix motif peptide 4C (lactam 235–250, seven-atom crosslink)] | 3.2

Target: T2, GST-hTEAD1(209–426) (human, UniProt P28347 209-426)
T2 chain: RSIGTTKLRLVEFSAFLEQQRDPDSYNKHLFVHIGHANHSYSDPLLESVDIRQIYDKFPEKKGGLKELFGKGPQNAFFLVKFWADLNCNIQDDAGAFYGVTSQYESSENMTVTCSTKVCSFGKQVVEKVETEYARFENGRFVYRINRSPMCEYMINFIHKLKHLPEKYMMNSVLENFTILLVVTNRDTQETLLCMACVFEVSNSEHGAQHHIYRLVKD
Assay: SPR

Binder | Kd [µM]
SVEDHFAKALGDTWLQIKAA (lactam (positions not given here); not fully specified (bridges)) [macrocyclic two-helix motif peptide 4D (lactam 235–250, seven-atom crosslink)] | 1.5
B1 | 15
B2 | 14
SVDDHFAKALGDTWLQIKAA (lactam 3-18) [macrocyclic two-helix motif peptide 4C (lactam 235–250, seven-atom crosslink)] | 4.8
